The text below walks through data of publication PMC5080380, “Mechanical Strength and Inhibition of the Staphylococcus aureus Collagen-Binding Protein Cna” (mBio, 2016).

As a reminder, the koff is a measure of how fast the partners let go of each other.

Experiment [1] deals with type II collagen purified from bovine nasal septum (bovine) (UniProt P02459). Nature of the experiment: single-cell force spectroscopy (AFM); a single living Cna^(+) S. aureus Phillips bacterium on a colloidal probe cantilever against a Cn substrate (NHS chemistry); PBS, 20°C; contact time 100 ms, 250 pN, 1,000 nm s^-1; Cna^(−) cells as control.
Sequence of type II collagen purified from bovine nasal septum (bovine) (P02459 182-1241): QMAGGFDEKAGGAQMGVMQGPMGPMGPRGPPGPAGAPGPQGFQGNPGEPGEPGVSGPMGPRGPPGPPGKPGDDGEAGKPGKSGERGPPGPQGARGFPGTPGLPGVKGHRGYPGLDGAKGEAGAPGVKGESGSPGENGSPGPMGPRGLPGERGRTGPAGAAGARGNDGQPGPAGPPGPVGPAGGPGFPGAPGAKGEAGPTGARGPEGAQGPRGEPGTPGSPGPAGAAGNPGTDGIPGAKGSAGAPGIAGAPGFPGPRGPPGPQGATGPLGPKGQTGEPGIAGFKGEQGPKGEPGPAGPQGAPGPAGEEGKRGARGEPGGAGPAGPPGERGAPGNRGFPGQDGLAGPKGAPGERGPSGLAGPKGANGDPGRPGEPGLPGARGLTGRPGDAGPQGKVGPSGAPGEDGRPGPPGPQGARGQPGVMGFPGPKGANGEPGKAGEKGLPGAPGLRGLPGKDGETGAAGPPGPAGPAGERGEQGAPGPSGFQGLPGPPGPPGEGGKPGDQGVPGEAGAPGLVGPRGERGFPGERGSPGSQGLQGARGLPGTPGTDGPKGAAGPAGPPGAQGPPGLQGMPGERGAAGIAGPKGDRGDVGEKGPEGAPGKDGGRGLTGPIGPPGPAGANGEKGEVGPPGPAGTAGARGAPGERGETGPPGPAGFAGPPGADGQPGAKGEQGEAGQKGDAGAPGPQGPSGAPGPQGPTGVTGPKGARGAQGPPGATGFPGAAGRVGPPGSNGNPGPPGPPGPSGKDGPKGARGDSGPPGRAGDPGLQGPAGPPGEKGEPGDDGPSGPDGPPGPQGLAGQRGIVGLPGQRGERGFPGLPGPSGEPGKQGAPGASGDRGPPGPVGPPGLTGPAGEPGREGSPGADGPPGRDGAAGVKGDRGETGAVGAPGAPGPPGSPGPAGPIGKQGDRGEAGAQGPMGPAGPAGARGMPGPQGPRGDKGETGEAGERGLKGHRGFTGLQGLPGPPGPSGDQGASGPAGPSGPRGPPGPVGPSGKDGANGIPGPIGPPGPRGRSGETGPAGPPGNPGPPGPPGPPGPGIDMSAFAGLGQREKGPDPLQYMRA
Experiment [2] has the same target. Nature of the experiment: single-molecule force spectroscopy (AFM); Cn tips (NHS chemistry) on living Cna^(+) S. aureus Phillips bacteria trapped in porous membranes; PBS, 20°C; contact time 100 ms, 250 pN, 1,000 nm s^-1; Cna^(−) cells and 9G7 MAb (10 µg/ml) as controls.
For experiment [3], the target named is T1, type II collagen purified from bovine nasal septum (bovine, UniProt P02459 182-1241).
T1 construct: Collagen type II, bovine, purified from nasal septum; collagen alpha-1(II) chain; Attached to gold-coated tips or substrates by NHS/EDC chemistry, or coated on microtiter wells; also called Cn; type II Cn; source: purified from bovine nasal septum (as described by Strawich and Nimni)
T1 sequence (P02459 182-1241): as above
Kind of experiment: single-molecule force spectroscopy (AFM); inverse configuration: Cn on the tip and CNA_(31–344) on the substrate, both by NHS chemistry; PBS, 20°C; contact time 250 ms, 250 pN, 1,000 nm s^-1 (retraction speed varied for koff); 6 tips and substrates. The note with it: both partners purified.

The target of experiment [4] is T1, type II collagen purified from bovine …. Kind of experiment: single-molecule force spectroscopy (AFM); recombinant CNA fragment on the tip at low density by a PEG-benzaldehyde linker, Cn on the substrate by NHS chemistry; PBS, 20°C; contact time 250 ms, maximum applied force 250 pN, approach and retraction speeds 1,000 nm s^-1 (retraction speed varied for the loading-rate plot and koff); 8 tips and substrates. To be noted: both partners purified.

With “full-length collagen-binding protein Cna expressed on living Staphylococcus aureus strain Phillips cells (natural protein)”, in experiment [1], the adhesion force (single cell) was 100 to 5000 pN; the fraction of force curves with adhesion force peaks lay within 54 to 89%; the strong adhesion force (single cell), cell no. 1 was determined as 2120 pN; the strong adhesion force (single cell), cell no. 2 is 3380 pN. In experiment [1], this molecule showed a strong adhesion force (single cell), cell no. 3 of 2500 pN; a strong adhesion force (single cell), cell no. 4 of 3250 pN; a strong adhesion force (single cell), cell no. 5 of 1890 pN; a strong adhesion force (single cell), cell no. 6 of 3620 pN. For the same molecule, in experiment [1], the strong adhesion forces (single cell) was 3160 pN and the weak adhesion forces (single cell) was 670 pN. Further, in experiment [2], the strong adhesion forces (single molecule) came to 1170 pN and the weak adhesion forces (single molecule) worked out at 239 pN.

B1: recombinant CNA_(31–344), N1N2 subdomains of the A region of the Staphylococcus aureus collagen-binding protein Cna (domain or fragment)
chain: RDISSTNVTDLTVSPSKIEDGGKTTVKMTFDDKNGKIQNGDMIKVAWPTSGTVKIEGYSKTVPLTVKGEQVGQAVITPDGATITFNDKVEKLSDVSGFAEFEVQGRNLTQTNTSDDKVATITSGNKSTNVTVHKSEAGTSSVFYYKTGDMLPEDTTHVRWFLNINNEKSYVSKDITIKDQIQGGQQLDLSTLNINVTGTHSNYYSGQSAITDFEKAFPGSKITVDNTKNTIDVTIPQGYGSYNSFSINYKTKITNEQQKEFVNNSQAWYQEHGKEEVNGKSFNHTVHNINANAGIEGTVKGELKVLKQDKDTKA
notes: Collagen adhesin Cna of S. aureus FDA 574, residues 31 to 344 (predicted N1N2 subdomains of the A region); In the assay it was coupled covalently to the AFM tip (PEG-benzaldehyde linker) or to the substrate (NHS chemistry); source: recombinant, cloned into plasmid pQE30, purified
Regarding B1, the values for the koff in experiment [3] and in experiment [4] were 0.0005 s⁻¹ and 0.0002 s⁻¹, respectively.
